Assay: yeast display, Sf9 membrane polyspecificity reagent, FACS + sequencing; frameworks hold sequencing errors
Summary of the method: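 Genes from sorted yeast were amplified by colony PCR, read by MiSeq 2 × 250 sequencing and filtered on CDR length. These cells carried a synthetic nanobody library in Saccharomyces cerevisiae BJ5465 and were sorted by FACS into low and high (top ~1%) gates on anti-HA and streptavidin fluorescence. Polyreactivity is labelled according to the gate of origin.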

Sequence | polyreactivity (PSR sort gate)
QVQLVESGGGLVQAGGSLRLSCAASGRIFYTYAMGWYRPAPGKERELVAAITYRGGSTYYADSVKGRFTISRDNAKNTVYLQMNSLKPEDTAVYYCAGRPGRGPDSRWRYKYDYWGQGTQVTVSS | high polyreactivity
QVQLVESGGGLVQAGGSLRLSCAASGRIFYTYAMGWYRQAPGKERELVAAIRWRGGSTHYADSVKGRFTISRDNAKNTVYLQMNSLKPEDTAVYYCARDGGWYIDGRAYTGDYWGQGTQVTVSS | high polyreactivity
QVQLVESGGGLVQAGGSLRLSCAASGRIFYTYAMGWYRQAPGKERELVATISGRGGSTYYADSVKGRFTISRDNAKNTVYLLMNSLKPEDTAVYYCAAVSYTQSHAYWGTGYRYGYWGQGTQVTVSS | high polyreactivity
QVQLVESGGGLVQAGGSLRLSCAASGRIFYVNAMGWYRQAPGKERELVATINYTDGSTYYADSVKGRFTISRDKAKNTVYLQMNSMKPEDTAVYYCAADAVWYDFVAYWTTYYYWGPGTQVTVSS | low polyreactivity
QVQLVESGGGLVQAGGSLRLSCAASGRIFYVYAMGWYRQAPGKEREFVAAITRRSGSTYYADSVKGRFTISRDKAKNTVYLQMNSLKPEDTAVYYCNARLKYAFPQVPPYDYWGQGTQVTVSS | high polyreactivity
QVQLVESGGGLVQAGGSLRLSCAASGRIFYVYGMGWYRQAPGKERELVGAISKRGDNTYYADSVKGRFTISRDNAKNTVYLQMNSLNPEDTAVYYCNVKRYGGRSDYWGQGTQVTVSS | high polyreactivity
QVQLVESGGGLVQAGGSLRLSCAASGRIFYWNAMGWYRQAPGKERELVAVITKSGGSTYYADSVKGRFTISRDNAKNTVYLQMNSLKPEDTAVYYCAKSLYVQGYYIYDWGQGTQVTVSS | high polyreactivity
QVQLVESGGGLVQAGGSLRLSCAASGRIFYWYAMGWYRQAPGKERELVAAISGSDGSTYYADSVKGRFTISRDNAKNTVYLQMNSLKPEDTAVYYCADEGSYPRMDYWGQGTQVTVSS | low polyreactivity
QVQLVESGGGLVQAGGSLRLSCAASGRIFYYNAMGWSRQAPGKEWELVAAITYSGTSTYYAASVKGRFTISRDNAKYTVYLQMNSLKPEDTAVDYCNAEGDNRRDRYDYWGQGTQVTVSS | low polyreactivity
QVQLVESGGGLVQAGGSLRLSCAASGRIFYYNAMGWYRQAPGKEREFVAAITYRGGSTYYADSVKGRFTISRDNAKNTVYLQMNSLKPEDTAVYYCAARSAWQVAPRGRTVAFDYWGQGTQLTVSS | high polyreactivity
QVQLVESGGGLVQAGGSLRLSCAASGRIFYYNAMGWYRQAPGKERELVAAITRSGSTNYADSVKGRFTISRDNSKNSVYLQMNSLKPEDTAVYYCAAPWRGSVFRYYSWGQGTQVTVSS | low polyreactivity
QVQLVESGGGLVQAGGSLRLSCAASGRIFYYNAMGWYRQAPGKERELVAAITYIGGNTHYADSVKGRFTISRDNAKNTVYFQMNSLKPEDTAVYYCARGTVLGFYYEYGYWGQGTQVTVSS | low polyreactivity
QVQLVESGGGLVQAGGSLRLSCAASGRIFYYNTMGWYRQAPGKERELVAAISYRGGSTYYADSVKGRFTISRDNAKNTVYLQMNSLKTEDTAVYYCAAPVRQSSYTRYDSWGQGTQVTVSS | high polyreactivity
QVQLVESGGGLVQAGGSLRLSCAASGRIFYYNTMGWYRQAPGKERELVAAITTNGGSTYYADSVKGRFTISRDNAKNTVYLQMNSPKPEDTAVYYCNRDRYPYYYAYNYWGQGTQVTVSS | low polyreactivity
QVQLVESGGGLVQAGGSLRLSCAASGRIFYYYAMGRYRQAPGKERELVAAISWSGGSTYYADSVKGRFTISRDNAKNTVYLQMNSLKPEDTAVYYCAAESRKYREYYYWGQGTQVTVSS | high polyreactivity
QVQLVESGGGLVQAGGSLRLSCAASGRIFYYYAMGWYRQAPGKERELVAAISSRGASTYYADSVKGRFTISRDNAKNTVYLQMNSLKPEDTAVYYCAASTPFRSTRYDYWGQGTQVTVSS | high polyreactivity
QVQLVESGGGLVQAGGSLRLSCAASGRIFYYYAMGWYRQAPGKERELVAAISSSGGSTYYADSVKGRYTISRDNAKNTVYLQMNSLKPEDTAVYYCNARTRYDMGYWGQGTQVTVSS | high polyreactivity
QVQLVESGGGLVQAGGSLRLSCAASGRIFYYYAMGWYRQAPGKERELVAAISWRGTSTYYADSVKGRFTISRDNAKNTVYLQMNSLKPEDTAVYYCAARYTKGMYYWGQGTQVSVSS | high polyreactivity
QVQLVESGGGLVQAGGSLRLSCAASGRIFYYYAMGWYRQAPGKERELVAAISWRGVSTYYADSVKGRFTISRDNAKNTVYLQMNSLKPEDTAVYYCAASQYRSPYPYRDYYTPDYDYWGQGTQVTVSS | high polyreactivity
QVQLVESGGGLVQAGGSLRLSCAASGRIFYYYAMGWYRQAPGKERELVAAITWNGTSTYYADSVKGRFTISRDNAKNTVYLQMNSLKPEDTAVYYCAAEGWVGAWWYVLDVRYDYWGQGTQVTVSS | low polyreactivity
QVQLVESGGGLVQAGGSLRLSCAASGRIFYYYAMGWYRQAPGKERELVATISRSGGSTYYADSVKGRFTISRDNAKNTVYLQMNSLKPEDTAVYYCAAGYGPSGYTRYYWGQGTQVTVSS | high polyreactivity

From the nanobody polyreactivity screen of Harvey et al. (2022)
